This is an account of results in the DeepSol protein solubility set.

A short description of the series: soluble on expression in E. coli; label from the status in PepcDB or PDB records.
As to “MGSDKIHHHHHHSRSTKGVRELSLFNRHTGEYNNGSYWVDGHYQSEVLADFSHLLRDHRQNVAAPMDKRLFDLLYTLKSTLNTDKEIHVISGYRSPKTNAMLAGKSGGVAKKSYHMQGMAMDIAIPGVNLKTIRDAALSLKLGGVGYYPKSGFVHVDCGPVRHW”, the “soluble on expression in E. coli” value is reported as “not soluble”.
The entry for “MKLTPKELDKLMLHYAGELAKKRKEKGIKLNYVEAVALISAHIMEEARAGKKTAAELMQEGRTLLKPDDVMDGVASMIHEVGIEAMFPDGTKLVTVHTPIEANGKLVPGELFLKNEDITINEGKKAVSVKVKNVGDRPVQIGSHFHFFEVNRCLDFDREKTFGKRLDIAAGTAVRFEPGEEKSVELIDIGGNRRIFGFNALVDRQADNESKKIALHRAKERGFHGAKSDDNYVKTIKE” is “soluble”.
With “MGSDKIHHHHHHMVEEQHVTQYGSLLKPCMSRLENLLVHQYVECWLYWSCYETETDTRIRGIWQFMFEQELKHLHIALELLRQYEKKDWQEVIPDAEFPAPLVLESNIEYVRCVLGSTVNDTACRERYVDVRNNAPETFIRYQRMVNDPVRNVMSHTFIEDYIRKNGEDYRFEVAPNPVPELRDRTKDNICVGRQPLCRNRY” the entry was “not soluble”.
The entry for “MGSDKIHHHHHHMFSARLKAIAQPVLADIENHPFVRGIQAGAVPAAALMVYVEQDTCFLDAFAKVYAGALSKCTTKDQMRFFEEQIRYTLNDEAGAHQILCDIAGQKLSDHQHAKQRPITYLYNEHLFNALRTGDLIDLIAAMLPCPWTYTEISQQIVDGAAPDNPFLPWIEFYQPQPGQIDGSMVKTLFGMVDELAIGLSEERQHEIEQRFLRSCELEYEFWEQAYYQKDWKYKN” is “not soluble”; for “MAKIGENVPLLIDKAVDFMASSQAFREYLNKTPPRDYVPSEVPSESAPIYLQRLEYYRRLYRPKEEERG” it is “not soluble”.
On to “MLEQLPYLALKTPPKTTALLKAECADFIVKEHLGYEMSGDGEFVALYVRKTDCNTLFVGEKLAKFAGVSERNMGYAGLKDRRAVTEQWFCLQMPGMETPDFSQFELDGVEILTVTRHNRKIRTGSLEGNYFDILLRGAEESDELKARLDFVANFGFPNYFTEQRFGRDGHNLTQALRWAQGEIKVKDRKKRSFYLSAARSEIFNLVVAARIEKSTINQVLPNDIVQLAGSHSWFKADEKEDLTALQVRLENQDILLTAPLIGEDILAASEIENEIVNQHSAFDPLMKQERMKAARRPLLMKAKGFSWAFEPEGLRLKFYLPAGSYATALVRELVNYTEE”, for which the “soluble on expression in E. coli” value is reported as “soluble”.
The entry for “MGSDKIHHHHHHMTIHKLKEKVASTDFEQHSYAFRRFVLDELRVYIPFAAACFTTIDPESLLSTGTVMDKQLEPIHTLILENEHTGSDYNHYFQLVDSSPHIATLHDATGGNLTASQRYTRILAPAGFHDELRAALIDQGKCWGHLTLFHSKHHSPFSREEQQLVNSLLPAITKKVKRLTFQSTFSPSPNSSHFEAAIMIFSDTFELLSANEAAHSLLSLLREQEQLGEGTFPRPIETLCVKIKATSSSKEEGEIDRWSVCIPAANGQLLTLYASKLTSELLPEQYAVISQNTSPFERLGYSLLYYGLTQREIQIVEQIVNGYTTKQISSHLYISTHTVQDHLKSIFAKMNVNSRRELLSFLNQANK” is “not soluble”; for “GMMNDYLNFLDGRVSVRRFDPDAVLPNDLIKDMLEHASYAPSGNNFQPWRVVVVKNKNKQEDLKKLAALQPQVATASAVFLLFGDENAYDLTWWQEFHVQKGIITKDEAAARAERIRQYFDLHPEDKETQGLRLDVGLFAMNLMQVVRVYGYDSVPMRGVDFDAIKTYLDMPNGWEPILMLPVGKALQAGNPHVRKSVAEFAEIIE” it is “soluble”.
Regarding “GITPRFSITQDEEFIFLKIFISNIRFSAVGLEIIIQENMIIFHLSPYYLRLRFPHELIDDERSTAQYDSKDECINVKVAKLNKNEYFEDLDLPTKLLARQGDLAGADALTENTDAKKTQKPLIQEVETDGVSNN”, the “soluble on expression in E. coli” value is “soluble”.
The entry for “MGSDKIHHHHHHMRNLNEKMKDIFERSVEDIKERNQNLLRPEHILLQILYDENEATKVLKDLNVNVEEVITELEDYIDSQYGIYYGFSDQVYVSKELSYILELARKEARLFKQKDIGPLHFLLGLLRDGSTHAARVLKKYGVDYEKVLQTVKEHEEEYAAEQSPLTAFATDLTKLAKEGKVGPIIGRDREIERVIEILMRKTKNNPILIGDPGVGKTAIVEGLAQRIVEGKVPDPLKDVRILMVDLGRMIAGTKYRGEFEERLKSFLDEVMKQKEKTILFIDEIHTLVGAGAAEGAMDAANMLKPALARGEIRVIGATHWMSTENT” is “not soluble”; for “MSLTFHEIRFPEDISYGSTGGPEFSTSIVQTNNGSEYRKVNLSYSRNKYNIMYNMKSEDQLLKLINFFYVHKGKAIGFRFKDWSDYKAKKEHIGIGNDKQKKFQIIKTYSIDQHSYIRKITKPVINTVKIYYDDIEKVDGFSVNFSNGQIEFNTPPHNGVTIYADYEFDVPVRFDSDYLPYSMDNYNEHNCNNIALIEIKTEGHHHHHH” it is “soluble”.
As to “MEERMEMISERPKESMYSWNKTAEKSDFEAVEALMSMSCSWKSDFKKYVENRPVTPVSDLSEEENLLPGTPDFHTIPAFCLTPPYSPSDFEPSQVSNLMAPAPSTVHFKSLSDTAKPHIAAPFKEEEKSPVSAPKLPKAQATSVIRHTADAQLCNHQTCPMKAASILNYQNNSFRRRTHLNVEAARKNIPCAAVSPNRSKCERNTVADVDEKASAALYDFSVPSSETVICRSQPAPVSPQQKSVLVSPPAVSAGGVPPMPVICQMVPLPANNPVVTTVVPSTPPSQPPAVCPPVVFMGTQVPKGAVMFVVPQPVVQSSKPPVVSPNGTRLSPIAPAPGFSPSAAKVTPQIDSSRIRSHICSHPGCGKTYFKSSHLKAHTRTHTGEKPFSCSWKGCERRFARSDELSRHRRTHTGEKKFACPMCDRRFMRSDHLTKHARRHLSAKKLPNWQMEVSKLNDIALPPTPAPTQ”, the “soluble on expression in E. coli” value was “soluble”.
In the case of “DLRFFGDFVLEGDARLGEVAALYGLKLDGIDPGMPLSQFIVQKNRGEPVVGDQIEWNGTIWTVAVMDGNKIQKVGVKFPEGTRPGPGLFL”, the “soluble on expression in E. coli” value is given as “not soluble”.
With “MRTQFINEQTMMIYFENEISESTFKKVQQTIQYIKSKNLSEITNMIPSYRAILIYFDNSGINGTELLENLELDENSNSRKQSHFKQRIIHIPVLYGGDFGPDLSEVANVNKLSQEEVIQIHTQQPYLIYMLGFMPGFPYLGGLDAKLHTPRRSEPRIKINAGSVGIANNQTGLYPMDSPGGWQIIGRTPIKVFDLNRTPMTLYEAGDYIQFYSINYQEFEKISNDINKGKFDIDKWVTYQDEYLEHHHHHH” the entry was “not soluble”; with “MSGWNVNASSFVPNANARPFVPGQPYTPQPEQAAPEPTEDWEAQADTSPAAVQPEVAEPVAVQESAPVAPVSATEAPKKEPTPEEDLVAPLAKKFQRTVYVDDGTHKEHINMVFVGHVDAGKSTIGGQLMFLTGMVDKRTLEKYEREAKEKGRESWYLSWCMDTNDEEREKGKTVEVGRAYFETEKRHFTILDAPGHKSFVPNMIVGANQADLAVLVISARRGEFETGFDRGGQTREHSMLVKTAGVKHLVILVNKMDDPTVKWEEERFKEIEGKLTPFLRKLGFNPKTDITYVPCSGLTGAFIKDRPTGSEGNWYSGPCFIEFIDVLLPSYKRDFNGPVRCTVAEKYSEMGTVIIGKMESGCVQKGDTLVVMPNKQPVQVLQIWADDVETERVVAGDNIKFKLKGIEENELQGGFIICSPDSLAKTGRVFDAEVLVLEHRSIIASGYSCVLHIQSAVEEVTVKGVIATIDKKTGEKKRAKFVKQDEKCIMRLESPEPFVLEPFKEYPYLGRFTLRDEGKTIAIGKVLKVVE”, “not soluble”.
The entry for “RDIKDLIVALDIGTSKVVAVVAEILPEGRFEVLGLGQHESRGMRKGVVVNIETTVNSIQRALEEAELMADCKIRDVYAGIAGSHIRSFNSSGMVAVKDKEVTATDVARVIETAKAVNIPTDQ” is “not soluble”; for “MSLKITKIETTLFEYKLDRSMGDANSPMGRKKGSGCVLELITDEGISGISIGGQNALPQINSIFDGILLNNDPKAIFSIWKRMVEKYFKGGHDGIANDAISAIDVALWDLKAKINEEPLWKTLGGNNNKVNVYASDIALPINDDDLFNWYSKMSDKFGFKGGKLKVGLDQESDLKRLELMHNALSKNCDDPILYVDSNEYWSPKQTIRNVSEMEERFTLGWIEEPARRWDFLGLKKVSDSLQTPVCAGENLDTLGDFLPYFHHRSADVIQVSHGMTGISGALQIADAAYALELPVTLGGSSGIIHAHIANAIPNCITVEVPHPEPETKVFTSDVTIKDGYAFVGNKPGMGIEVNYEELAKHKVEKVSQKAGPSPYGRRPGAGLYEIPPTKEEISEGQSKEGHHHHHH” it is “soluble”.
The entry for “VGDFNYYASANWSCEQSKVLYKDEQKVPYEYLRTTGKPKGAIFGLVAEGFFTSQDEITKSPVIEGFNNIQPGDIKYKDQNNDGVINDFDKVMIGGDKPLSYFGIDLGFEWRGLEFSMFWQGVYNKDVLMSDWNLLEGFQTQGQVYGQAYENMLDRWTPETAATATFPRLSAGGNKYNQGNGWGSSFWLRSGNYIRLKNVSLGYNLPDSFCRNYLGGARVKVFVSGQNLFTKAANELVDPEVSFGNYPLQRCISTGINVKF” is “not soluble”; for “ATFIEQQVGGNLTEASLALRLPTLLPYNGVLFLGNSLLVRLVDALTQLPESYPVYTNRGASGIDGLLATAAGIGIGSNKPVVAVIGDTSTLYDLNSFALFKNVTQPTLIFVINNNGGAIFDMLPVDEQVKDQFYRLPHNGDFSQIAAMFDLKYAHPYTWADLNSVVKQAYSRRKATLIEIKTNPSDG” it is “not soluble”; for “MNRKGYKSGFVSIIGRPNVGKSTFLNRIIGQKIAIMSDKPQTTRNKIQGVYTENDSQVIFIDTPGIHKPKHKLGDFMVKMAQTTLKEVDIVLFMVNAVEGFGRGEEFIIEKLKETKQPVFLVINKIDQVHPEQLLELIDQYRKLHDFAEIVPISALDGNNAEALIGTIKKYLPEGPQYYPDNQVTDHPERFIIAELIREKVLHLTREEVPHSVAVVIDAIQKREGGAVYINATIVVERPSQKGIIIGKQGKMLKEVGKRARFDIEALLGSKVFLEVWVKVQKDWRNKMSQLRDLGFREDEY” it is “not soluble”.
Consider “MILLLAGTSDARELAVMIQQAGYNVTATVVTDHAAEQLRSAGIRAYVGRLDASQLADLAKAEGAKAIVDASHPFAEEASKNAMQAAADAGLPYIRYERQASSFSSEKVTFVDSYEEAADLAAEKGGVVMLTTGSKTIDIFAARLIGRPDVKVIARMLPRKDNLDKCERLGFSQEQIVMMQGPFTKELDRALYRHFGVTVVVTKESGKVGFVDEKIAAAEELGIDVIVIRRPRLSYGIVHHDFAGVLDALKQHAPLPTV”, for which the “soluble on expression in E. coli” value is given as “not soluble”.
With “MGSDKIHHHHHHMSDRLDEVDKRILYNLVRDARNTSAPDIADEVNVSAGTIRNRITHLEAAGIIRGYHAVVSYPQVGGRLTNLYICTSPVPDRDRLSKQVAEIPGVVSVRQLMKGRSNLHVTAVGDDMQELTRIANDLSAIGLDIEEENLLQSEEIRPYHEFGPDDSQDGHTIADFMELSGGAEVVELSVAADAEIAGHTLREANERGVIESDVLVVSIERDDEMLTPRGDTRVRPDDLVTVFCRGGISQETLSVFGKRGSATET” the entry was “not soluble”.
With “ELSENFKKLMKYPYRPCTCTRCIEEQRVSAWFDERFNRSMQPLLTAKNAHLEEDTYKWWLRLQREKQPNNLNDTIRELFQVVPGNVDPLLEKRLVSCRRCAVVGNSGNLKESYYGPQIDSHDFVLRMNKAPTEGFEADVGSKTTHHFVYPESFRELAQEVSMILVPFKTTDLEWVISATTTGRISHTYVPVPAKIKVKKEKILIYHPAFIKYVFDRWLQGHGRYPSTGILSVIFSLHICDEVDLYGFGADSKGNWHHYWENNPSAGAFRKTGVHDGDFESNVTTILASINKIRIFKGR” the entry was “soluble”.
